Measured values published in patent US20250043302A1, “MUTATED HYDROXYPHENYLPYRUVATE DIOXYGENASE POLYPEPTIDE, AND CODING GENE AND USE THEREOF” (BEIJING DABEINONG BIOTECHNOLOGY CO., LTD., priority 2021, published 2025).

Columns and labels:
Type in all cases: in vivo
[1] = test system: Arabidopsis thaliana T1 plants; test: Mesotrione tolerance of transgenic Arabidopsis thaliana T1 plants (spray, bleached leaf area grade, damage score); set-up: Scores: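 damage score 0-100 computed as Σ(N×S)/(T×M)×100 over grades 0-3 with higher meaning more damage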; conditions: Table 12; for Classification and statistics of the grade of pesticide damage Grade 0: number of plants at grade 0; for Classification and statistics of the grade of pesticide damage Grade 1: number of plants at grade 1; for Classification and statistics of the grade of pesticide damage Grade 2: number of plants at grade 2; for Classification and statistics of the grade of pesticide damage Grade 3: number of plants at grade 3; for Scores: pesticide damage score
Outline: (§1)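 T1 transformants selected by glufosinate; 18-day-old plants, with empty-vector and wild-type controls, sprayed with topramezone (25–200 g ai/ha), isoxaflutole (35–280 g ai/ha) or mesotrione (52.5–420 g ai/ha), water as 0×. Bleached leaf area fraction scored at 7 DAT as grades 0–3.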

[2] = test system: Arabidopsis thaliana T1 plants; test: Isoxaflutole tolerance of transgenic Arabidopsis thaliana T1 plants (spray, bleached leaf area grade, damage score); conditions: Table 11; for Classification and statistics of the grade of pesticide damage Grade 0: number of plants at grade 0; for Classification and statistics of the grade of pesticide damage Grade 1: number of plants at grade 1; for Classification and statistics of the grade of pesticide damage Grade 2: number of plants at grade 2; for Classification and statistics of the grade of pesticide damage Grade 3: number of plants at grade 3; for Scores: pesticide damage score;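 for Scores: Weighted damage index from 0 to 100 where higher means more damage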
Outline: as §1

[3] = test system: Arabidopsis thaliana T1 plants; test: Topramezone tolerance of transgenic Arabidopsis thaliana T1 plants (spray, bleached leaf area grade, damage score); conditions: Table 10; for Classification and statistics of the grade of pesticide damage Grade 0: number of plants at grade 0; for Classification and statistics of the grade of pesticide damage Grade 1: number of plants at grade 1; for Classification and statistics of the grade of pesticide damage Grade 2: number of plants at grade 2; for Classification and statistics of the grade of pesticide damage Grade 3: number of plants at grade 3; for Scores: pesticide damage score
Outline: as §1

B1: HPPDm-6-02: nucleotide sequence encoding Avena sativa HPPD with A106G+K351N+F372A+F383W; vector DBN11787 (nucleic acid)
DNA: ATGCCACCTACTCCAGCTACAGCTACTGGTGCTGCTGCTGCTGCCGTTACTCCTGAGCACGCTGCCAGGTCATTCCCCAGGGTGGTTCGCGTGAACCCCAGATCTGATAGGTTCCCAGTTCTGAGCTTCCACCATGTTGAGCTGTGGTGCGCTGATGCTGCTTCTGCTGCTGGCAGGTTCTCTTTCGCTCTTGGTGCTCCACTCGCTGCTAGATCTGATCTGTCTACAGGAAATAGCGCTCATGCCTCACTCCTGCTTCGCTCAGGTGCTTTGGCCTTCCTCTTCACCGCTCCATATGCTCCCCCACCTCAGGAGGGTGCTACTGCTGCTGCTACAGCCTCCATTCCAAGCTTCTCAGCTGATGCCGCTAGAACCTTCGCTGCTGCTCATGGACTTGCCGTGAGGTCTGTTGGTGTTCGCGTGGCTGATGCTGCTGAGGCTTTCAGAGTTTCCGTTGCCGGCGGAGCTAGGCCAGCTTTCGCTCCTGCTGATTTGGGACATGGTTTCGGCCTGGCTGAGGTTGAGCTTTACGGTGACGTGGTTCTCCGCTTCGTGTCTTACCCAGATGAGACTGACCTGCCTTTCCTTCCCGGCTTCGAGAGAGTTTCCTCTCCTGGTGCCGTGGATTACGGCCTGACAAGGTTCGACCACGTGGTTGGAAACGTTCCCGAGATGGCTCCAGTGATCGATTACATGAAGGGCTTCCTTGGATTCCATGAGTTCGCCGAGTTCACTGCTGAGGACGTGGGAACCACTGAGTCCGGTTTGAACTCTGTGGTTCTCGCCAACAATTCTGAGGCTGTTTTGCTCCCTCTGAATGAGCCTGTGCATGGAACCAAGAGGAGAAGCCAGATTCAAACTTACCTGGAGTACCACGGTGGCCCTGGAGTTCAGCATATCGCCCTTGCTTCTAATGATGTGTTGCGCACACTCAGAGAGATGCGCGCCAGAACCCCCATGGGAGGTTTCGAGTTCATGGCCCCACCACAGGCTAAGTACTACGAGGGCGTTAGAAGGATTGCTGGAGACGTGTTGAGCGAGGAGCAGATCAATGAGTGCCAAGAGCTGGGTGTTCTTGTGGATAGGGATGACCAGGGCGTTCTGCTTCAAATTGCCACTAAGCCAGTGGGCGACCGCCCTACATTCTGGCTTGAGATGATTCAAAGAATCGGCTGCATGGAGAAGGATGAGGTTGGACAGGAGTACCAAAAGGGCGGATGCGGTGGCTTCGGAAAGGGTAACTTCAGCGAGTTGTTCAAGTCAATCGAGGACTACGAGAAGAGCCTCGAGGTGAAGCAGTCAGTGGTTGCCCAAAAGTCCTGA
modifications: HPPDm-6-02 Nucleotide Sequence
notes: vector DBN11787
In the case of B1, the Resistance evaluation ([1]; mesotrione 210 g ai/ha (2×)) is reported as “Highly resistant”, the “Classification and statistics of the grade of pesticide damage Grade 0” value ([1]; mesotrione 210 g ai/ha (2×)) is reported as 16 and the “Classification and statistics of the grade of pesticide damage Grade 1” value ([1]; mesotrione 210 g ai/ha (2×)) is reported as 0. The “Classification and statistics of the grade of pesticide damage Grade 2” value ([1]; mesotrione 210 g ai/ha (2×)) was 0, the “Classification and statistics of the grade of pesticide damage Grade 3” value ([1]; mesotrione 210 g ai/ha (2×)) was 0 and the Scores ([1]; mesotrione 210 g ai/ha (2×)) was 0. For the same molecule, the Resistance evaluation ([1]; mesotrione 420 g ai/ha (4×)) was “Highly resistant”, the “Classification and statistics of the grade of pesticide damage Grade 0” value ([1]; mesotrione 420 g ai/ha (4×)) was 16 and the “Classification and statistics of the grade of pesticide damage Grade 1” value ([1]; mesotrione 420 g ai/ha (4×)) was 0. For the same molecule, the “Classification and statistics of the grade of pesticide damage Grade 2” value ([1]; mesotrione 420 g ai/ha (4×)) was 0, the “Classification and statistics of the grade of pesticide damage Grade 3” value ([1]; mesotrione 420 g ai/ha (4×)) was 0 and the Scores ([1]; mesotrione 420 g ai/ha (4×)) was 0. The Resistance evaluation ([2]; isoxaflutole 140 g ai/ha (2×)) was “Highly resistant”, the “Classification and statistics of the grade of pesticide damage Grade 0” value ([2]; isoxaflutole 140 g ai/ha (2×)) was 16 and the “Classification and statistics of the grade of pesticide damage Grade 1” value ([2]; isoxaflutole 140 g ai/ha (2×)) was 0. The “Classification and statistics of the grade of pesticide damage Grade 2” value ([2]; isoxaflutole 140 g ai/ha (2×)) was 0, the “Classification and statistics of the grade of pesticide damage Grade 3” value ([2]; isoxaflutole 140 g ai/ha (2×)) was 0 and the Scores ([2]; isoxaflutole 140 g ai/ha (2×)) was 0. For the same molecule, the Resistance evaluation ([2]; isoxaflutole 280 g ai/ha (4×)) was “Highly resistant”, the “Classification and statistics of the grade of pesticide damage Grade 0” value ([2]; isoxaflutole 280 g ai/ha (4×)) was 13 and the “Classification and statistics of the grade of pesticide damage Grade 1” value ([2]; isoxaflutole 280 g ai/ha (4×)) was 3. For the same molecule, the “Classification and statistics of the grade of pesticide damage Grade 2” value ([2]; isoxaflutole 280 g ai/ha (4×)) was 0, the “Classification and statistics of the grade of pesticide damage Grade 3” value ([2]; isoxaflutole 280 g ai/ha (4×)) was 0 and the Scores ([2]; isoxaflutole 280 g ai/ha (4×)) was 6. The Resistance evaluation ([3]; topramezone 100 g ai/ha (4×)) was “Highly resistant”, the “Classification and statistics of the grade of pesticide damage Grade 0” value ([3]; topramezone 100 g ai/ha (4×)) was 16 and the “Classification and statistics of the grade of pesticide damage Grade 1” value ([3]; topramezone 100 g ai/ha (4×)) was 0. For the same molecule, the “Classification and statistics of the grade of pesticide damage Grade 2” value ([3]; topramezone 100 g ai/ha (4×)) was 0, the “Classification and statistics of the grade of pesticide damage Grade 3” value ([3]; topramezone 100 g ai/ha (4×)) was 0 and the Scores ([3]; topramezone 100 g ai/ha (4×)) was 0. The Resistance evaluation ([3]; topramezone 200 g ai/ha (8×)) was “Highly resistant”, the “Classification and statistics of the grade of pesticide damage Grade 0” value ([3]; topramezone 200 g ai/ha (8×)) was 16 and the “Classification and statistics of the grade of pesticide damage Grade 1” value ([3]; topramezone 200 g ai/ha (8×)) was 0. The “Classification and statistics of the grade of pesticide damage Grade 2” value ([3]; topramezone 200 g ai/ha (8×)) was 0, the “Classification and statistics of the grade of pesticide damage Grade 3” value ([3]; topramezone 200 g ai/ha (8×)) was 0 and the Scores ([3]; topramezone 200 g ai/ha (8×)) was 0.
